B1: baculovirus-expressed S. purpuratus katanin p60 subunit with N-terminal His(6) tag (enzyme)
chain: HHHHHHMSVDEICENTKMGREYALLGNYETSLVYYQGVLQQIQKLLTSVHEPQRKHQWQTIRQELSQEYEHVKNITKTLNGFKSEPAAPEPAPNHGRAAPFSHHQHAAKPAAAEPARDPDVWPPPTPVDHRPSPPYQRAARKDPPRRSEPSKPANRAPGNDRGGRGPSDRRGDARSGGGGRGGARGSDKDKNRGGKSDKDKKAPSGEEGDEKKFDPAGYDKDLVENLERDIVQRNPNVHWADIAGLTEAKRLLEEAVVLPLWMPDYFKGIRRPWKGVLMVGPPGTGKTMLAKAVATECGTTFFNVSSASLTSKYHGESEKLVRLLFEMARFYAPSTIFIDEIDSICSKRGTGSEHEASRRVKSELLIQMDGVSGPSAGEESSKMVMVLAATNFPWDIDEALRRRLEKRIYIPLPEIDGREQLLRINLKEVPLADDIDLKSIAEKMDGYSGADITNVCRDASMMAMRRRIQGLRPEEIRHIPKEELNQPSTPADFLLALQKVSKSVGKEDLVKYMAWMEEFGSV
notes: Expressed from pFastBac HT in Sf9 cells; also called p60 katanin; recombinant p60
B2: baculovirus-expressed S. purpuratus katanin p80 subunit with N-terminal His(6) tag (other)
chain: HHHHHHMATKRAWKLQELVAHSSNVNCLALGPMSGRVMVTGGEDKKVNLWAVGKQNCIISLSGHTSPVDSVKFNSSEELVVAGSQSGTMKIYDLEPAKIVRTLTGHRNSIRCMDFHPFGEFVASGSTDTNVKLWDVRRKGCIYTYKGHSDQVNMIKFSPDGKWLVTASEDTTIKLWDLTMGKLFQEFKNHTGGVTGIEFHPNEFLLASGSSDRTVQFWDLETFQLVSSTSPGASAVRSISFHPDGSYLFCSSQDMLHAFGWEPIRCFDTFSVFWGKVADTVIASTQLIGASFNATNVSVYVADLSRMSTTGIAQEPQSQPSKTPSGGAEEVPSKPLTASGRKNFVRERPHTTSSKQRQPDVKSEPERQSPTQDEGVKDDDATDIKDPDSYAKIFSPKTRVDHSPERNAQPFPAPLDVPGAQEPEPFKHPPKPAAAAAVAPVSRAPAPSASDWQPAQANPAPNRVPAATKPVPAQEVAPSRKPDPISTIIPSDRNKPANLDMDAFLPPAHAQQAPRVNAPASRKQSDSERIEGLRKGHDSMCQVLSSRHRNLDVVRAIWTAGDAKTSVESVVNMKDQAILVDILNIMLLKKSLWNLDMCVVVLPRLKELLSSKYENYVHTSCACLKLILKNFTSLFNQNIKCPPSGIDITREERYNKCSKCYSYLIATRGYVEEKQHVSGKLGSSFRELHLLLDQLE
notes: Expressed from pFastBac HT in Sf9 cells; also called p80 katanin; recombinant p80

What was measured:
[1] = biological target: B2; test: co-immunoprecipitation from insect cells co-infected with p60 and p80 baculoviruses, SDS-PAGE with Coomassie
Procedure: 6xHis-tagged (SEQ ID NO:14) katanin subunits were purified from lysates of baculovirus-infected insect cells by binding to Ni^2+-NTA Superflow followed by elution with imidazole, as described in the Experimental Procedures. […] Proteins bound to the resin were analyzed by SDS-PAGE followed by staining with Coomassie.
After equilibration in TBST, 20–40 μl of antibody beads were added to katanin samples diluted in TBST containing 1–2 mg/ml soybean trypsin inhibitor (SBTI). The immunoprecipitations were incubated at 4° C. for 1–2 hr, washed five times with 1 ml of ice-cold TBST, and eluted in SDS-containing sample buffer.

[2] = biological target: the molecule itself; test: rotary-shadowing electron microscopy of recombinant p60 on mica (self-association into rings)
[3] = biological target: B1; test: Ni-NTA purification of co-expressed His-tagged subunits, Coomassie-stained SDS-PAGE

B1: binds [1]; binds [2].

In the case of B2, the “p60:p80 molar ratio in the purified co-expressed protein” value [3] is reported as ~0.9 mol p80 per mol p60.
